{"source": "patent US20200024330A1", "test_in_all_cases": "cell-based or functional assay", "key": {"[1]": {"biological_target": "HIV-1 MGRM-C-019 Env (HIV-1)"}, "[2]": {"biological_target": "HIV-1 Env of pseudovirus APV_6, clade B (HIV-1)"}, "[3]": {"biological_target": "HIV-1 Env of pseudovirus JRCSF, clade B (HIV-1) (UniProt P20871)"}, "[4]": {"biological_target": "HIV-1 Env of isolate 92UG046 (clade D) (HIV-1)"}, "[5]": {"biological_target": "HIV-1 Env of isolate MGRM-AE-002 (HIV-1)"}, "[6]": {"biological_target": "HIV-1 MGRM-C-004 Env (HIV-1)"}, "[7]": {"biological_target": "HIV-1 Env of isolate MGRM-G-011 (clade G pseudovirus) (HIV-1)"}, "[8]": {"biological_target": "HIV-1 92RW009 envelope glycoprotein (Env) (HIV-1)"}, "[9]": {"biological_target": "HIV-1 Env of pseudovirus TRO.11 (Acute), clade B (HIV-1)"}, "[10]": {"biological_target": "HIV-1 MGRM-F1-006 Env (pseudovirus) (HIV-1)"}, "[11]": {"biological_target": "HIV-1 MGRM-C-023 Env (HIV-1)"}, "[12]": {"biological_target": "HIV-1 MGRM-F1-018 Env (pseudovirus) (HIV-1)"}, "[13]": {"biological_target": "HIV-1 Env of isolate MGRM-G-011 (subtype G) (HIV-1)"}, "[14]": {"biological_target": "HIV-1 MGRM-A-010 envelope glycoprotein (Env) on pseudovirus (HIV-1)"}, "[15]": {"biological_target": "HIV-1 Env of isolate MGRM-F1-013 (HIV-1)"}, "[16]": {"biological_target": "HIV-1 92RW020 envelope protein (Env) on pseudovirus (HIV-1)"}, "[17]": {"biological_target": "HIV-1 Env of pseudovirus SC422661.8 (Acute), clade B (HIV-1)"}, "[18]": {"biological_target": "HIV-1 Env of isolate MG RM-AG-009 (HIV-1)"}, "[19]": {"biological_target": "HIV-1 SC422661.8 Env (pseudovirus) (HIV-1)"}, "[20]": {"biological_target": "HIV-1 Env of isolate MGRM-F1-020 (HIV-1)"}, "[21]": {"biological_target": "HIV-1 Env of isolate MGRM-F1-004 (subtype F) (HIV-1)"}, "[22]": {"biological_target": "HIV-1 Env of isolate MG RM-D-012 (subtype D) (HIV-1)"}, "[23]": {"biological_target": "HIV-1 92BR020 Env (pseudovirus) (HIV-1)"}, "[24]": {"biological_target": "HIV-1 Env of isolate 92UG114 (subtype D) (HIV-1)"}, "[25]": {"biological_target": "HIV-1 Env of isolate MGRM-C-009 (pseudovirus) (HIV-1 isolate MGRM-C-009, subtype C)"}, "[26]": {"biological_target": "HIV-1 JR-CSF Env N478A (HIV-1 (isolate JR-CSF)) (UniProt P20871)"}, "[27]": {"biological_target": "HIV-1 JR-CSF Env E466A (HIV-1 (isolate JR-CSF)) (UniProt P20871)"}}, "data": [{"substance": "1496_C09 (PG9) (TCN-109) (antibody)", "values": [{"measurement": "IC50", "setting": "[1]", "result": 0.01, "unit": "µg/mL"}, {"measurement": "IC50 (µg/ml), pseudovirus neutralization", "setting": "[2]", "result": 0.12, "unit": "µg/mL"}, {"measurement": "IC50 (µg/ml), pseudovirus neutralization", "setting": "[3]", "result": 0.003, "unit": "µg/mL"}, {"measurement": "IC50 (µg/ml), pseudovirus neutralization", "setting": "[4]", "result": 0.64, "unit": "µg/mL"}, {"measurement": "IC50 (µg/mL), pseudovirus neutralization", "setting": "[5]", "result": 0.04, "unit": "µg/mL"}, {"measurement": "IC50 (µg/ml), pseudovirus neutralization", "setting": "[5]", "result": 0.04, "unit": "µg/mL"}, {"measurement": "IC50", "setting": "[6]", "result": 1.18, "unit": "µg/mL"}, {"measurement": "IC50 (µg/ml), pseudovirus neutralization", "setting": "[7]", "result": 0.19, "unit": "µg/mL"}, {"measurement": "IC50 (µg/ml), pseudovirus neutralization", "setting": "[8]", "result": 0.03, "unit": "µg/mL"}, {"measurement": "IC50 (µg/ml), pseudovirus neutralization", "setting": "[9]", "result": 5.43, "unit": "µg/mL"}, {"measurement": "IC50 (µg/ml), pseudovirus neutralization", "setting": "[10]", "result": 1.45, "unit": "µg/mL"}, {"measurement": "IC50", "setting": "[11]", "result": 0.51, "unit": "µg/mL"}, {"measurement": "IC50 (µg/ml), pseudovirus neutralization", "setting": "[12]", "result": 0.03, "unit": "µg/mL"}, {"measurement": "neutralization IC50", "setting": "[13]", "result": 0.335, "unit": "µg/mL"}, {"measurement": "IC50 (ug/ml), neutralizing activity", "setting": "[14]", "result": 0.0375, "unit": "µg/mL"}, {"measurement": "IC50 neutralization", "setting": "[14]", "result": 0.0375, "unit": "µg/mL"}, {"measurement": "IC80, neutralization", "setting": "[14]", "result": 0.121, "unit": "µg/mL"}, {"measurement": "IC90, neutralization", "setting": "[14]", "result": 0.242, "unit": "µg/mL"}, {"measurement": "IC95, neutralization", "setting": "[14]", "result": 0.456, "unit": "µg/mL"}, {"measurement": "IC50 (µg/mL), pseudovirus neutralization", "setting": "[15]", "result": 1.25, "unit": "µg/mL"}, {"measurement": "neutralization IC50", "setting": "[16]", "result": 0.0637, "unit": "µg/mL"}, {"measurement": "IC50 (µg/ml), pseudovirus neutralization", "setting": "[17]", "result": 0.79, "unit": "µg/mL"}]}, {"substance": "4838_L06 (PGT-121) (antibody)", "values": [{"measurement": "neutralization IC50", "setting": "[18]", "result": 0.08, "unit": "µg/mL"}, {"measurement": "IC50, pseudovirus neutralization", "setting": "[19]", "result": 0.098, "unit": "µg/mL"}, {"measurement": "IC50", "setting": "[20]", "result": 0.167, "unit": "µg/mL"}, {"measurement": "IC50 (µg/mL), pseudovirus neutralization", "setting": "[21]", "result": 1.67, "unit": "µg/mL"}, {"measurement": "IC50 (µg/mL), pseudovirus neutralization", "setting": "[22]", "result": "> 50", "unit": "µg/mL"}, {"measurement": "IC50", "setting": "[15]", "result": 0.083, "unit": "µg/mL"}, {"measurement": "neutralization IC80", "setting": "[23]", "result": 0.0532, "unit": "µg/mL"}, {"measurement": "neutralization IC90", "setting": "[23]", "result": 0.101, "unit": "µg/mL"}, {"measurement": "IC50 (µg/mL), pseudovirus neutralization", "setting": "[24]", "result": 0.004, "unit": "µg/mL"}, {"measurement": "IC50 (µg/mL) neutralization", "setting": "[25]", "result": "> 50", "unit": "µg/mL"}]}, {"substance": "4858_P08 (PGT-123) (antibody)", "values": [{"measurement": "neutralization IC50", "setting": "[18]", "result": 0.073, "unit": "µg/mL"}, {"measurement": "IC50, pseudovirus neutralization", "setting": "[19]", "result": 0.039, "unit": "µg/mL"}, {"measurement": "Fold IC50 increase relative to wild-type", "setting": "[26]", "result": 0.6, "unit": "fold"}, {"measurement": "Fold IC50 increase relative to wild-type", "setting": "[27]", "result": 0.6, "unit": "fold"}, {"measurement": "IC50", "setting": "[20]", "result": 0.051, "unit": "µg/mL"}, {"measurement": "IC50 (µg/mL), pseudovirus neutralization", "setting": "[21]", "result": 1.78, "unit": "µg/mL"}, {"measurement": "IC50 (µg/mL), pseudovirus neutralization", "setting": "[22]", "result": "> 50", "unit": "µg/mL"}, {"measurement": "IC50 (ug/ml), neutralizing activity", "setting": "[14]", "result": 0.492, "unit": "µg/mL"}, {"measurement": "IC50, pseudovirus neutralization", "setting": "[14]", "result": 0.492, "unit": "µg/mL"}, {"measurement": "IC80, pseudovirus neutralization", "setting": "[14]", "result": 2.79, "unit": "µg/mL"}, {"measurement": "IC90 (pseudovirus neutralization)", "setting": "[14]", "result": 6.44, "unit": "µg/mL"}, {"measurement": "IC95, pseudovirus neutralization", "setting": "[14]", "result": "> 10", "unit": "µg/mL"}, {"measurement": "IC50", "setting": "[15]", "result": 0.08, "unit": "µg/mL"}, {"measurement": "IC50, pseudovirus neutralization", "setting": "[23]", "result": 0.008, "unit": "µg/mL"}, {"measurement": "IC50 (µg/mL), pseudovirus neutralization", "setting": "[24]", "result": 0.005, "unit": "µg/mL"}, {"measurement": "IC50 (µg/mL) neutralization", "setting": "[25]", "result": "> 50", "unit": "µg/mL"}]}, {"substance": "4877_D15 (PGT-122) (antibody)", "values": [{"measurement": "neutralization IC50", "setting": "[18]", "result": 0.128, "unit": "µg/mL"}, {"measurement": "IC50, pseudovirus neutralization", "setting": "[19]", "result": 0.103, "unit": "µg/mL"}, {"measurement": "IC50", "setting": "[20]", "result": 0.321, "unit": "µg/mL"}, {"measurement": "IC50 (µg/mL), pseudovirus neutralization", "setting": "[21]", "result": 1.29, "unit": "µg/mL"}, {"measurement": "IC50 (µg/mL), pseudovirus neutralization", "setting": "[22]", "result": "> 50", "unit": "µg/mL"}, {"measurement": "IC50 (ug/ml), neutralizing activity", "setting": "[14]", "result": 1.68, "unit": "µg/mL"}, {"measurement": "IC50", "setting": "[15]", "result": 0.152, "unit": "µg/mL"}, {"measurement": "IC50, pseudovirus neutralization", "setting": "[23]", "result": 0.021, "unit": "µg/mL"}, {"measurement": "IC50 (µg/mL), pseudovirus neutralization", "setting": "[24]", "result": 0.011, "unit": "µg/mL"}, {"measurement": "IC50 (µg/mL) neutralization", "setting": "[25]", "result": "> 50", "unit": "µg/mL"}]}]}
